We go through 2 molecules from PMC3868940 (Nature methods, 2013).

Assay in all cases: native MS
For series [1], the target named is sensory rhodopsin II (pSRII) from Natronomonas pharaonis, pSRII(1-241) (Natronomonas pharaonis) (UniProt P42196).
Series [2] deals with the molecule itself.
Series [3] deals with the molecule itself. The source holds these as a separate data set.

Where two headings read alike, the source gives them in different places.

Usually stoichiometry N stands for the number of molecules, sites or subunits per partner or assembly. With “sensory rhodopsin II (pSRII) from Natronomonas pharaonis, pSRII(1-241) (from UniProt P42196 1-239) (receptor)”, the stoichiometry N in series [1] was 2.

B1: Diacylglycerol Kinase (DgkA) from E. coli (enzyme, E. coli K12, UniProt P0ABN1 2-122, looked up)
chain: ANNTTGFTRIIKAAGYSWKGLRAAWINEAAFRQEGVAVLLAVVIACWLDVDAITRVLLISSVMLVMIVEILNSAIEAVVDRIGSEYHELSGRAKDMGSAAVLIAIIVAVITWCILLWSHFG
With B1, the “stoichiometry N” value was 2 in series [2] and 3 in series [3].
